This assay has as its target T1, PKR fused to the GAL4 DNA-binding domain (mammalian two-hybrid bait) (UniProt P19525 1-551).
T1 construct: also called GAL4-DBD PKR; source: mammalian two-hybrid fusion, transfected cells (COS-1 by the methods, HeLa by the legends)
Kind of assay: two-hybrid; mammalian two-hybrid, PKR as GAL4-DBD fusion (bait), PACT proteins as VP16-AD fusions (preys), pG5Luc firefly luciferase reporter normalised to pRL-Null; cells untreated, no stress. To be noted: partners not purified. A general note: Reporter assays use an easily measured gene product as a stand-in for the process of interest.

Residue numbers refer to the chain shown, from its start. Names and notes keep the numbering of the source.

T1 sequence (P19525 whole entry, the tested form may be a part): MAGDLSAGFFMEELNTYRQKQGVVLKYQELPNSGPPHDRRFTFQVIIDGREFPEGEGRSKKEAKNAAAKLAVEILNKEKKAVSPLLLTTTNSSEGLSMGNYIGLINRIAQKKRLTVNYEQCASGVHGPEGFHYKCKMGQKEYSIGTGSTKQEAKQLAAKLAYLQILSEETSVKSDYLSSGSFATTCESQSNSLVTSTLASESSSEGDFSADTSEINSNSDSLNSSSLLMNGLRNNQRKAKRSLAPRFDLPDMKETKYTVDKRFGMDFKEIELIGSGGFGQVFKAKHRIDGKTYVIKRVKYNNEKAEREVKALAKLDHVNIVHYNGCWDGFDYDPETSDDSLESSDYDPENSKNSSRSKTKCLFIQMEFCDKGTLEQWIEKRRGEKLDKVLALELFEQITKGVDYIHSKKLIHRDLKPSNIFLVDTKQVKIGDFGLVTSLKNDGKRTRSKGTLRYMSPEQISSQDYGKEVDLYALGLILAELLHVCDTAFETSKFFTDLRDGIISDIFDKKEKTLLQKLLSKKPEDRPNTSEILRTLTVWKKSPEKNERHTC

B1: DD (S246D, S287D) phosphomimic mutant PACT fused to the VP16 activation domain (mammalian two-hybrid prey) (natural protein, UniProt O75569 1-313, looked up)
chain: MSQSRHRAEAPPLEREDSGTFSLGKMITAKPGKTPIQVLHEYGMKTKNIPVYECERSDVQIHVPTFTFRVTVGDITCTGEGTSKKLAKHRAAEAAINILKANASICFAVPDPLMPDPSKQPKNQLNPIGSLQELAIHHGWRLPEYTLSQEGGPAHKREYTTICRLESFMETGKGASKKQAKRNAAEKFLAKFSNISPENHISLTNVVGHSLGCTWHSLRNSPGEKINLLKRSLLSIPNTDYIQLLDEIAKEQGFNITYLDIDELSANGQYQCLAELSTSPITVCHGDGISCGNAQSDAAHNALQYLKIIAERK
notes: PACT ORF with serines 246 and 287 replaced by aspartic acids, in pVP16AASV19N; also called DD PACT; DD mutant; source: mammalian two-hybrid fusion, transfected cells (COS-1 by the methods, HeLa by the legends)
Regarding B1, the “fold interaction against wt PACT-PKR (two-hybrid luciferase)” value is over 2 fold.

B2: P222L PACT fused to the VP16 activation domain (mammalian two-hybrid prey) (natural protein, UniProt O75569 1-313, looked up)
chain: B1 chain with P222L, D246S, D287S
notes: PACT ORF with the DYT-PRKRA patient mutation P222L, in pVP16AASV19N; Plasmid described in Vaughn et al., 2015; Burnett et al., 2020; also called P222L mutant; source: mammalian two-hybrid fusion, transfected cells (COS-1 by the methods, HeLa by the legends)
Consider B2, for which the “fold interaction against wt PACT-PKR (two-hybrid luciferase)” value was about 3 fold.

The record behind these values is PMC9974672, “Luteolin protects DYT-PRKRA cells from apoptosis by suppressing PKR activation” (Frontiers in Pharmacology, 2023).
